B1: Membrane-associated guanylate kinase, WW and PDZ domain-containing protein 2, residues 601 to 682; numbered along this chain, Q86UL8 (parent)
chain: AELMTLTIVKGAQGFGFTIADSPTGQRVKQILDIQGCPGLCEGDLIVEINQQNVQNLSHTEVVDILKDCPIGSETSLIIHRG

Variants of: B1
Test: abundance fitness (aPCA) (normalised: wild type 0, dead -1); higher = more abundant; growth selection in yeast, the domain comes from the species named
Conditions: Homo sapiens

Abundance fitness: each site, then its substitutions
G25: P -0.371 | S -0.185 | K -0.267 | A -0.046 | C -0.17 | E -0.127 | D -0.766 | Q -0.255 | L -0.538 | R -0.356 | M -0.191 | T -0.318 | F -0.314 | W -0.531 | N -0.162 | V -0.514
I19: P -0.023 | Y -0.148 | R -1.16 | H 0.134 | G -1.31 | W -0.203 | L -0.012 | S -0.634 | C -0.335 | Q -0.708 | A -0.542 | T -0.169 | E -0.872
Q26: A 0.063 | K 0.038 | H -0.124 | P 0.045 | C -0.039 | N -0.139 | L -0.028 | R -0.032 | V -0.025 | T -0.007 | E 0.016 | G -0.032 | Y 0.316 | F -0.194 | W -0.105 | S -0.071 | I -0.111 | D -0.176
T24: R 0.007 | G 0.041 | N -0.004 | W -0.076 | Y -0.021 | V -0.08 | M -0.031 | L -0.023 | C -0.03 | P -0.017 | A -0.013 | D -0.037 | Q -0.035 | F -0.053 | H 0.02 | E 0.024
L32: T -0.023 | M 0.035 | S 0.024 | D 0.022 | Y -0.16 | N -0.124 | A -0.218 | W -0.158 | V 0.052 | P -0.119 | K -0.295 | C -0.197 | I -0.057 | Q -0.212 | R -0.069 | G 0.021
P23: E -0.022 | H -0.303 | L -0.018 | V -0.297 | C 0.021 | F -0.106 | K 0.023 | I -0.17 | G -0.09 | W -0.03 | Q -0.029 | N -0.045 | T -0.058 | Y -0.16 | M -0.072 | R -0.03 | D -0.129
D21: W -0.111 | F -0.208 | V -0.064 | A -0.126 | E -0.023 | S -0.054 | L 0.084 | Y -0.099 | H -0.068 | G -0.082 | N -0.105 | P -0.048 | M 0.079 | K -0.039 | C -0.14
D33: Q 0.024 | N -0.043 | V -0.152 | R -0.061 | W -0.117 | E -0.089 | P -0.147 | T -0.02 | Y 0.049 | C -0.092 | G -0.11 | K -0.192 | H -0.088 | I -0.243 | M -0.124
R27: C -0.589 | M -0.066 | E -0.173 | W -0.054 | G -0.107 | A -0.042 | P -0.382 | D -0.42 | I 0.047 | V 0.047 | S -0.158 | H -0.089 | L -0.007 | T 0.021
G16: N 0.018 | M -0.007 | T -0.048 | W -0.045 | P -0.006 | Q -0.085 | L -0.014 | Y -0.155 | S -0.027 | R -0.051
Q35: R 0.021 | H 0.08 | T 0.209 | L -0.115 | A 0.086 | Y -0.066 | S -0.005 | G 0.052 | V -0.064 | P -0.243 | K -0.278
P38: C -0.158 | E -0.11 | K -0.001 | A -0.096 | G -0.067 | H -0.363
